According to PMC2116342 (The Journal of Cell Biology, 1990):

Assays:
[1] = biological target: L-desmin (desmin lacking its carboxy-terminal 27 residues) (chicken); experiment: cross-linking
cross-linking = biological target: the molecule itself; experiment: cross-linking

stoichiometry N [1]	Molecule	stoichiometry N (cross-linking)
4	L-desmin (desmin lacking its carboxy-terminal 27 residues) (domain or fragment)	
	desmin (intact chicken gizzard desmin) (natural protein, UniProt P02542 1-464, looked up) MSQSYSSSQRVSSYRRTFGGGTSPVFPRASFGSRGSGSSVTSRVYQVSRTSAVPTLSTFRTTRVTPLRTYQSAYQGAGELLDFSLADAMNQEFLQTRTNEKVELQELNDRFANYIEKVRFLEQQNALMVAEVNRLRGKEPTRVAEMYEEELRELRRQVDALTGQRARVEVERDNLLDDLQKLKQRLQEEIQLKEEAENNLAAFRADVDAATLARIDLERRIESLQEEIAFLKKVHEEEIRELQAQLQEQHIQVEMDISKPDLTAALRDIRAQYESIAAKNIAEAEEWYKSKVSDLTQAANKNNDALRQAKQEMLEYRHQIQSYTCEIDALKGTNDSLMRQMREMEERFAGEAGGYQDTIARLEEEIRHLKDEMARHLREYQDLLNVKMALDVEIATYRKLLEGEENRISIPMHQTFASALNFRETSPDQRGSEVHTKKTVMIKTIETRDGEVVSEATQQQHEVL	4
